Patent US20070036793A1, “Methods for use of an lkb1/strad7mo25 complex” (priority 2003, published 2007)

Target: T1, LKB1 (Mus musculus, UniProt Q9WTK7)
T1 construct: Constructs expressing the full length wild type and kinase dead mouse LKB1 have been described previously; made in house; host or cells: 293 cells, transiently transfected
T1 sequence (Q9WTK7 1-433 limits assumed): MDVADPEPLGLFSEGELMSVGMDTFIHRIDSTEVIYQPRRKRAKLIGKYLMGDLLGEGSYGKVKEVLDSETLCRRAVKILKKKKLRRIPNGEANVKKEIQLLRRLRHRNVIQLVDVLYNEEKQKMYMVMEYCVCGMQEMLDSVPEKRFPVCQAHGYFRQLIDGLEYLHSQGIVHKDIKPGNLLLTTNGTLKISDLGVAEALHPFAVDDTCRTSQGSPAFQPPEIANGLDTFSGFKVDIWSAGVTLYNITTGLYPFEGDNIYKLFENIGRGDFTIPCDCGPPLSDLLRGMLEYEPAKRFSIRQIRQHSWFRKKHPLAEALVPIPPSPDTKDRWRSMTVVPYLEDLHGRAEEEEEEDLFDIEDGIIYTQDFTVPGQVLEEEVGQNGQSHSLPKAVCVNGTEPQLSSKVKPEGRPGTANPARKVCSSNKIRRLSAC
T1 sequence (Q7RTN6 1-431 partner): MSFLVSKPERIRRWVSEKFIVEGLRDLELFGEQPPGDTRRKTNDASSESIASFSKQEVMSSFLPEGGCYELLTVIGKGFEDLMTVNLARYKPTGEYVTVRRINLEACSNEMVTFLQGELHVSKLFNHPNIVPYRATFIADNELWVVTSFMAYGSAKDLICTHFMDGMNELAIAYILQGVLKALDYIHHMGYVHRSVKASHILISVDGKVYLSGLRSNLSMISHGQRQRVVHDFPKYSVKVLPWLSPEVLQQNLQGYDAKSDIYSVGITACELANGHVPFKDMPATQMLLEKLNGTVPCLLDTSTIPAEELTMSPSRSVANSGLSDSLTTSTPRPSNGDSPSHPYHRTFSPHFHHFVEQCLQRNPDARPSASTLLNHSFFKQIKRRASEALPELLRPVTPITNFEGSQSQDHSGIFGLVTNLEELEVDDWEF
T1 sequence (Q9Y376 1-341 partner): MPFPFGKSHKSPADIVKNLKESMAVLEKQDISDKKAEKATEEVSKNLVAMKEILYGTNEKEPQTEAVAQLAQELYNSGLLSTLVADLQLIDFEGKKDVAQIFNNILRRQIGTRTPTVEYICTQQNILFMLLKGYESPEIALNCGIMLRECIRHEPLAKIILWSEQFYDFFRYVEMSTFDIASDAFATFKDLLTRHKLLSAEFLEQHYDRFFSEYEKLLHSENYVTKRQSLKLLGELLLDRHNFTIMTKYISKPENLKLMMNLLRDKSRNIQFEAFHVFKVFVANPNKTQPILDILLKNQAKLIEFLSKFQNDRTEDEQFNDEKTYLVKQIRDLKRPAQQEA
Assay: LKB1 autophosphorylation and phosphorylation of MBP after co-expression with STRAD and MO25 isoforms in 293 cells
Type: biochemical
Conditions: GST-LKB1 co-expressed with STRAD and MO25 isoforms in 293 cells
Method: FIG. 9. Activation of LKB1 by association with STRAD and MO25 Isoforms. 293 cells were transfected with constructs encoding GST-LKB1 in the presence or absence of constructs encoding the indicated isoforms of STRAD and MO25. 36 h post-transfection, GST-LKB1 was affinity purified and assayed for autophosphorylation and transphosphorylation of MBP as described in the materials and methods. The reactions were electrophoresed and the gel autoradiographed (top panel). Phosphorylation of MBP by LKB1 at Thr65 was also monitored by immunoblotting with a phosphospecific antibody (T65-P), which recognises MBP phosphorylated by LKB1 at this residue. Each reaction was also immunoblotted with the appropriate epitope tag antibodies to monitor levels of LKB1, STRAD and MO25 isoforms. Similar results were obtained in 3 separate experiments.
LKB1 autophosphorylation and phosphorylation of MBP. […] After incubation for 40 min at 30° C., the reactions were terminated by the addition of 8 μl of sample Buffer. 30 μl was electrophoresed on SDS-polyacrylamide gels, which were then dried and analysed by autoradiography to quantify LKB1 autophosphorylation, MBP and STRADα phosphorylation. 5 μl of each reaction was diluted in 45 μl of 1× SDS Sample Buffer. […]

increase in LKB1 activity relative to LKB1 expressed alone: 4 fold
B1: STRADα: STE20-related pseudokinase (STe20-Related ADaptor protein-α) that binds and activates LKB1 (protein, UniProt Q7RTN6 1-431, looked up)
STE20-related kinase adapter …: T1 sequence (Q7RTN6 1-431 partner)
